Measurements published in patent publication US20200024639A1.

Target: HA-NanoLuc-VAMP2 (UniProt P63027)
Test: cell-based or functional assay

Chain of UniProt P63027 (P63027 1-116, tags or fused parts left off): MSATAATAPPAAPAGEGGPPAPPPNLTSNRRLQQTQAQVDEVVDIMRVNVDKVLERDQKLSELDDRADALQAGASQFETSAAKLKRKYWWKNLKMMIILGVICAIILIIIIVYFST

**Q.** For “botulinum neurotoxin type B (from UniProt P10844 2-1291) (enzyme)”, which cleavage of the reporter in SiMa cells, immunoblot with total VAMP2 antibody is on record?
**A.** 10 nM
